In this test the target is Myc expressed from a co-transfected Myc expressing plasmid (pSpMyc). Nature of the test: cell-based or functional assay.

Experimental findings from patent publication US20030004092A1 are described below.

“cdr2 expressed from a co-transfected cdr2 expressing plasmid”: the Myc-dependent transcriptional activity (pM4luc luciferase reporter, NIH-3T3 cells) was 4 fold.
